In patent US20250367313A1 (MULTITUDE, published 2025):
Numbering of substitutions follows the chain as printed.

B1: CL070349 (antibody, V domains shown)
VH: DVQLQESGPGLVKPSQSLSLTCSVTGYSITSGFYWNWIRQLPGNKLEWLGYINFGGTNNYNPSLKIRGSITRDTSKNQFFLKLNSVTTEDTATYYCARGGNDGGFTYWGQGTLVTVSA
VL: ENVLTQSPAIVAASLGQKVTMTCRASSSVSSTYFHWYQQKSGASPKPLLHRTSNLASGVPARFSGSGSGTSYSLTISSVEAEDDATYYCHQWSGYPYTFGGGTKLEIK
notes: also called anti-MUC18 antibody CL070349
B2: CL070324 (antibody, V domains shown)
VH: EVLLQQSGPELVKPGASVKIPCKASGYTFTDYNMDWVKQSHGKSLEWIGDINPNNGATLYNQNFRGKATLTVDKSSSTAYMELRSLTSEDTAVYYCTRSGYDDYYALDYWGQGTSVTVSS
VL: QTVLTQSPAIMSASLGEEITLTCSASSSVGYMHWYQQKSGTSPKLLIYSTSNLASGVPSRFSGRGSGTFYSLTISTVEAEDAADYYCHQWSNYPSTFGTGTKLELK
notes: also called anti-MUC18 antibody CL070324
B3: CL070341 (antibody, V domains shown)
VH: EVQLVESGGDLVRPGGSLKLSCAASGFTFSTYGMSWVRQSPDKRLEWVATINSRASYTYYPDSVKGRFTISRDNAKNTLYLQMSSLKSEDTGLYFCARHRRDWDSYYAMDYWGQGTSVTVSS
VL: NIMLTQSPSSLAVSTGDKVTMNCKSSQSVLYNSNQKNYLAWYQQKPGQSPTLLIYWASTSESGVPDRFTGSGSGTDFTLTISSVQAEDLAVYYCHQYLSSWTFGGGTKLEIK
notes: also called anti-MUC18 antibody CL070341
B4: CL070350 (antibody, V domains shown)
VH: AVQLVESGGDLLRPGGSLKLSCVASGFTFNNYGMSWVRQTPDKRLEWVATINRGGSYTYYTDSVKGRFTISRDNAKKTLYLQMSSLKSEDTAMYYCARHRRDWDSYYAMDYWGQGTSVTVSS
VL: B3 VL with L4M, T15A, T20A, N22S, Q27R, Q44L, T51K, S60R, L109V
notes: also called anti-MUC18 antibody CL070350
B5: CL070370 (antibody, V domains shown)
VH: QIQLVQSGPELKKPGETVKISCKTSGYTFTDYSMHWVKQAPRKGLKWMGWINTETGEPTYADDFKGRFAFSLETSASTAYLQINNLRNEDTATYFCVSYDYDAVSYWGQGTLVTVSA
VL: DIVMTQSHKFMSTSVGDRVNITCKASQYVGAAVAWYQQKPGQSPKLLIYWASTRHTGVPDRFTGSGSGTDFTLTINNVQSEDLADYFCQQYGNYRTFGGGTKLEIK
notes: also called anti-MUC18 antibody CL070370
B6: J253 (antibody, V domains shown)
VH: QVQLQQSGAELVKPGASVKLSCKASGYTFTSYDINWVRQRPEQGLEWIGWIFPGDGSTDYNEKFKGKATLTTDKSSSTAYMQLSRLTSEDSAVYFCARYHFFDNWGQGTTLTVSS
VL: DIVITQDELSNPVTSGESVSISCRSSKSLLYKDGKTYLSWFLQRPGQSPQLLIYLMSTRASGVSDRFSGSGSGTDFTLEISRVKAEDVGVYYCQQLVEYPYTFGGGTKLEIK
notes: also called anti-MUC18 antibody (J253)
B7: CL070336 (antibody, V domains shown)
VH: DVQLQESGPDLVKPYQSLSLTCTVTGYSITSGYSWHWIRQFPGNKLEWLGYMHYSATPNYNPSLKSRISITRDTSKNQFFLQLNSVTTEDTATYYCSRSLNWDVLDYWGQGTTLIVSS
VL: DIVLTQSPAYLPVSLGQRATISCRASKSVRTSGYNYLHWYQQKPGQPPKLLIYLASNPESGVPGRFSGSGSGTDFTLNIHPVEEEDSATYYCQHSREFPFTFGGGTQLEIK
notes: also called anti-MUC18 antibody CL070336
B8: CL070335 (antibody, V domains shown)
VH: B7 VH with Y15S, L49M, M52I, A56T, P58T, N84S, Y95F
VL: B7 VL with N35S, P58L, G64D, S87A, S95T, Q107K
notes: also called anti-MUC18 antibody CL070335
B9: CL070333 (antibody, V domains shown)
VH: QVQLQQSGPELVKPGTSVKISCKASGFTFTGYYLHWLKQRPGQGLEWIGWIYPGNVNTEFNEKFKGQATLTADKSSSTAYMQLSSLTSEDSAVYFCARSGYFASSYEFAYWGQGTLVTVSA
VL: DIQMTQSPASLSASVGETVTITCRASENIYSYLAWYQQKQGKSPQLLVYNAKTLAEGVPSRFSVSGSGTHFSLKINSLQPEDFGSYYCQHHYGTPLTFGAGTKLELK
notes: also called anti-MUC18 antibody CL070333
B10: J253-vc-MMAE (antibody, V domains shown)
VH: B6 VH
VL: B6 VL
modifications: maleimidocaproyl-Val-Cit-PAB-MMAE coupled to the antibody by a thiol-based reaction; sites and drug load not stated

Biological target: T1, recombinant MUC18 protein (rProtein) (Homo sapiens (Human), UniProt P43121 24-559)
T1 sequence: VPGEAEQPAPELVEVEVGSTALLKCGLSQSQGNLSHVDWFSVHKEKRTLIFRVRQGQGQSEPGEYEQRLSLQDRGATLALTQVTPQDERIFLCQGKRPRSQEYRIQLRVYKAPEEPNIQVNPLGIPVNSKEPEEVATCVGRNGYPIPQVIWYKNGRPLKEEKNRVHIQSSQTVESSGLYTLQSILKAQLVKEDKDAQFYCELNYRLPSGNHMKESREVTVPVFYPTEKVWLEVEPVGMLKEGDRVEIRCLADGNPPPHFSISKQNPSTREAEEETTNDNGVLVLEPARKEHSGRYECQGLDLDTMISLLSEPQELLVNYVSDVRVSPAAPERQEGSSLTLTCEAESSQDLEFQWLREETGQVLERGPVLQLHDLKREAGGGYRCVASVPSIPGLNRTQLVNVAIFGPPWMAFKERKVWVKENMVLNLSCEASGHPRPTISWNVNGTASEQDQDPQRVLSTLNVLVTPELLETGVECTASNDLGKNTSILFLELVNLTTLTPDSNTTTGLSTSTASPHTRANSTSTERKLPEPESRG
Assay: ELISA titration, antibody with varying concentrations of recombinant MUC18 protein
Method: Antibodies were incubated with varying concentrations of recombinant MUC18 protein (rProtein).

Binding affinity [nM] | Binder
1.56 | B1
50 | B2
50 | B3
0.19 | B4
3.12 | B5
0.39 | B6
0.39 | B7
0.39 | B8
12.5 | B9

Biological target: T2, human MUC18 (human, UniProt P43121 24-646)
T2 sequence: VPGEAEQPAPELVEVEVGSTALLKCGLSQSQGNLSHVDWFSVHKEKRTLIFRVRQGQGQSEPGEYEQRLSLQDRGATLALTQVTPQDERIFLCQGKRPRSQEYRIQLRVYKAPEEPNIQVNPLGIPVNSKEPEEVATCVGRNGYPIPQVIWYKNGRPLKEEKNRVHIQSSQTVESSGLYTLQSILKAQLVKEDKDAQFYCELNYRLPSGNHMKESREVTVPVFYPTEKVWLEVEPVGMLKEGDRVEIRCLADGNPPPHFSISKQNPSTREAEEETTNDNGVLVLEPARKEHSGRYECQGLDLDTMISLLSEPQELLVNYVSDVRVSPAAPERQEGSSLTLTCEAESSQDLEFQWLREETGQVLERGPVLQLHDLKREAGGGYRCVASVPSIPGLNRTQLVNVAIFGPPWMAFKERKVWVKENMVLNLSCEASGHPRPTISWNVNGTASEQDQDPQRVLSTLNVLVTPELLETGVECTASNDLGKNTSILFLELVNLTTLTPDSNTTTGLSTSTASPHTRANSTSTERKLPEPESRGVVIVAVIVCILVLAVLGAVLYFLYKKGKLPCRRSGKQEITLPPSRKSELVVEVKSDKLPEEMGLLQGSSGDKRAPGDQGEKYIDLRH
Assay: cell-based or functional assay

Binder | IC50 of cell viability, GAK cells [pM] | IC50 of cell viability, HMV-II cells [pM] | IC50 of cell viability, SK-MEL-2 cells [pM]
B10 | 297 | 103 | 115
